Results from patent US20040106557A1 (LICENTIA, published 2004).
Ends that are not written are not given here.

B1: GST-A-1 (peptide A-1 expressed as glutathione S-transferase fusion protein) (other)
chain: CVFTSDYAFC
B2: GST-B-2 (peptide B-2 expressed as glutathione S-transferase fusion protein) (other)
chain: CVFAHNYDYLVC
B3: GST-C-4 (peptide C-4 expressed as glutathione S-transferase fusion protein) (other)
chain: CVAYCIEHHCWTC
B6: Prostate specific antigen (PSA), purified from human seminal fluid (enzyme)
chain: not shown
notes: mature; Mostly captured on wells by MAb 5E4 (IFMA) or on the chip by MAb H117 (SPR); in solution in enzyme assays; also called free PSA; active PSA

What was measured:
[1] = molecular target: B6; assay: SPR, PSA captured by MAb H117, 30 µM Zn2+
[2] = molecular target: B6; assay: SPR, GST-peptide injected over PSA captured by MAb H117; average of 3 concentrations
[3] = molecular target: B6; assay: SPR, PSA captured by MAb H117, 10 µM Zn2+
[4] = molecular target: B6; assay: SPR, PSA captured by MAb H117, 0 µM Zn2+, average of 3 fits (3.4-8.5 µM analyte)
[5] = molecular target: B6; assay: SPR, PSA captured by MAb H117, 1 µM Zn2+
[6] = molecular target: B6; assay: SPR, PSA captured by MAb H117, 30 µM Zn2+, single fit, 3.4 µM peptide
[7] = molecular target: B6; assay: SPR, PSA captured by MAb H117, 10 µM Zn2+, single fit, 3.4 µM peptide
[8] = molecular target: B6; assay: SPR, PSA captured by MAb H117, 1 µM Zn2+, single fit, 3.4 µM peptide
[9] = molecular target: B6; assay: cell-based or functional assay
[10] = molecular target: B6; assay: cell-based or functional assay; remark: listed apart in the source
[11] = molecular target: B6; assay: GST-peptide IFMA, PSA captured by MAb 5E4, Eu-labelled anti GST tracer
[12] = molecular target: B6; assay: phage display selection on PSA captured by MAb 5E4, 200 µM ZnCl2 in the panning buffer
Description: The screening of phage display peptide libraries was performed essentially as described by Koivunen et al. (21). Briefly, each phage library was separately screened with PSA captured on microtiter wells coated with the monoclonal antibody 5E4, which binds both free and complexed PSA (24). 33 nM PSA in TBS buffer containing 10 g/L BSA (BSA-TBS) was incubated in wells coated with MAb 5E4 for 1 h, then the wells were washed to remove unbound PSA. An aliquot of each phage library ([…] infectious particles) was added to the wells, and incubated for 3 h at 22° C. during the first round of panning and for 1 h during subsequent rounds. The phage solution was removed and the wells were washed with TBS containing 0.5% Tween 20. The panning was also performed in the prescence of 200 μM ZnCl2. The bound phage were eluted with 0.1 M glycine buffer, pH 2.2 and neutralized with 1 M Tris base. The eluted phage were amplified by infection of E. coli K91 kan cells, and purified by precipitation with polyethylene glycol. After three rounds of selection and amplification single stranded DNA from individual phage clones was prepared and the peptide sequences were determined by sequencing the relevant part of the viral DNA. Sequencing was performed with an ABI 310 Genetic analyzer and Dye Terminator Cycle Sequencing Core Kit (PE Applied Biosystems, Foster City, Calif., USA) using the oligonucleotide 5′ […] 3′ as a primer.

[13] = molecular target: B2; assay: competition IFMA: GST-peptide (167 nM) preincubated with PSA in solution, then binding to PSA captured by MAb 5E4
Description: (§1) Various amounts of GST-peptide or wild type GST were added to wells containing captured PSA in 200 μL of assay buffer and incubated for 1 h. To test the effect of Zn²⁺ on the binding between GST-peptide and PSA, various concentrations of Zn²⁺ (1-200 μM) were added to the buffer in the incubation step of GST-peptide and PSA. […] After incubation for 1 h the wells were washed and Eu³⁺-labeled anti GST antibody was added. After further incubation and washing the bound fluorescence was measured as described above. When assessing the binding of the GST-peptides to other proteinases, including chymotrypsin, cathepsin G, trypsin, and kallikrein, these proteinases were captured by their specific antibodies coated to the microtitration well. Recombinant hK2 was captured by MAb 5E4, which is known to bind hK2 (24). For assessing the binding of the GST-peptides with complexes of PSA, including PSA-ACT and PSA-α1-protease inhibitor (PSA-API) (28), the complexes were captured by antibodies against ACT and API, respectively. After capturing the various proteinases or PSA complexes, GST-peptide was added and binding was monitored as described above for the GST-peptide IFMA.
(§2) In this connection, we refer also to FIG. 3. GST-C-4 was preincubated with increasing concentrations of PSA in solution for 1 h. Then the samples of the mixtures were added to wells in which PSA had been captured by anti PSA MAb. The binding was measured by IFMA. Data represent mean values from duplicate wells ±SE. The corresponding values for the peptides A-1 (SEQ ID NO 1) and B-2 (SEQ ID NO 6) were 3.3 nM and 1 nM, respectively (data not shown). Preincubation of the GST-peptides with an excess of free PSA inhibited binding to the solid phase PSA. The binding of peptide C-4 (SEQ ID NO 11) to captured PSA was reduced by 50% at a PSA concentration of 0.7 nM.

[14] = molecular target: B1; assay: as above
Description: as §1, §2

[15] = molecular target: B3; assay: as above
Description: as §1, §2

With B1 the “increase (fold) of affinity against 0 µM Zn2+” value (“increase (fold) of affinity” below) [1] was 7.7 fold, the Kd [2] was 7.8 µM and the koff [2] was 0.08 s⁻¹. For the same binder, the kon [2] was 10300 M⁻¹ s⁻¹, the “increase (fold) of affinity” value [3] was 5.9 fold and the Kd [4] was 7.8 µM. For the same binder, the koff [4] was 0.08 s⁻¹, the kon [4] was 10300 M⁻¹ s⁻¹ and the “increase (fold) of affinity” value [5] was 3 fold. It also gave a Kd [6] of 1 µM, a koff [6] of 0.002 s⁻¹ and a kon [6] of 1900 M⁻¹ s⁻¹. For the same binder, the Kd [7] was 1.4 µM, the koff [7] was 0.0016 s⁻¹ and the kon [7] was 1200 M⁻¹ s⁻¹. For the same binder, the Kd [8] was 2.6 µM, the koff [8] was 0.0047 s⁻¹ and the kon [8] was 1800 M⁻¹ s⁻¹. The “50% stimulation” value [9] was 2.2 µM, the “minimum peptide concentration affecting the activity” value [10] was 300 nM and the “Maximal binding (CPS)” value [11] was 219000 CPS.

For B2, the “increase (fold) of affinity” value [1] was 4.7 fold, the Kd [2] was 3.5 µM and the koff [2] was 0.057 s⁻¹. The kon [2] was 16300 M⁻¹ s⁻¹, the “increase (fold) of affinity” value [3] was 6 fold and the Kd [4] was 3.5 µM. It also gave a koff [4] of 0.057 s⁻¹, a kon [4] of 16300 M⁻¹ s⁻¹ and a Kd [6] of 0.8 µM. The koff [6] was 0.0006 s⁻¹, the kon [6] was 830 M⁻¹ s⁻¹ and the Kd [7] was 0.6 µM. For the same binder, the koff [7] was 0.0016 s⁻¹, the kon [7] was 2650 M⁻¹ s⁻¹ and the Kd [8] was 3.1 µM. For the same binder, the koff [8] was 0.0035 s⁻¹, the “50% stimulation” value [9] was 1.7 µM and the “minimum peptide concentration affecting the activity” value [10] was 300 nM. For the same binder, the “Maximal binding (CPS)” value [11] was 428000 CPS.

In the case of B3, the “50% stimulation” value [9] is reported as 0.57 µM and the “Maximal binding (CPS)” value [11] is reported as 790000 CPS.

CVAYCIEHHCWTC (also: 99mTc chelated between thiol sulfurs of reduced peptide) [Tc99m-labeled C4] was tested, and the “decrease in PSA enzyme activity (S-2586, A405), 30-fold molar excess of peptide” value [10] was about 50%.

B4: phage-displayed peptide Z-10 (fUSE5 phage clone) (peptide)
chain: CVPYLGLWLC
modifications: cysteine pairing not given here; also: displayed on fUSE5 phage protein III with flanking residues
notes: isolated with 200 µM ZnCl2; not shown: fUSE5 phage protein III and flanking residues
B4: binds [12].

B5: phage-displayed peptide Z-11 (fUSE5 phage clone) (peptide)
chain: CMFDPMYMWMTC
modifications: cysteine pairing not given here; also: displayed on fUSE5 phage protein III with flanking residues
notes: as for B4
B5: binds [12].

Work on B6 yielded an IC50 [13] of 0.001 µM, an IC50 [14] of 0.0033 µM and an IC50 [15] of 0.0007 µM.
